# Data reported in patent US10266631B2, “Method for preparing peptide-polymer conjugate with stabilized α-helix secondary structure and peptide-polymer conjugate prepared thereby” (INDUSTRY-ACADEMIC COOPERATION FOUNDATION, YONSEI UNIVERSITY, priority 2016, dated 2019).
# * marks the point of attachment. Acryloyl = C=CC(=O)*
# Assay: Circular dichroism (CD) spectroscopy of α-helix secondary structure
# Type: physicochemical
# Conditions: 25° C.
# Protocol: CD spectra were recorded using a Chirascan circular dichroism spectrometer equipped with a Peltier temperature controller (Applied Photophysics Ltd.). The CD spectra of peptides were recorded at 190-260 nm.
# The temperature was 25° C. and the peptide concentration was 6 μM.
# The α-helix peptide substituted with an acryloyl group prepared in Preparation Example 1 (bisAAm-p53) was dissolved in a 10% HFIP solution (based on final concentration). After mixing with […] acrylamide, a peptide-polymer conjugate was prepared through free radical induced polymerization by adding ammonium persulfate (APS) and N,N,N′,N′-tetramethylethylenediamine (TEMED). The prepared 9 μM α-helix peptide multimer was diluted with a 0.2% HIFP solution.
# Before CD spectrum measurement, HFIP was completely evaporated from the samples through centrifugation.
substance,measurement,setting,value
"Preparation Example 1: p53-derived peptide Ac-QSQQTFKNLWRLLKQN-NH2 with both lysine ε-amines (i, i+7) acryloylated; FIG. 16A (Ac-QSQQTFK(Acryloyl)NLWRLLK(Acryloyl)QN-NH2; SMILES C=CC(=O)NCCCC[C@H](NC(=O)[C@H](CC(C)C)NC(=O)[C@H](CC(C)C)NC(=O)[C@H](CCCNC(=N)N)NC(=O)[C@H](Cc1c[nH]c2ccccc12)NC(=O)[C@H](CC(C)C)NC(=O)[C@H](CC(N)=O)NC(=O)[C@H](CCCCNC(=O)C=C)NC(=O)[C@H](Cc1ccccc1)NC(=O)[C@@H](NC(=O)[C@H](CCC(N)=O)NC(=O)[C@H](CCC(N)=O)NC(=O)[C@H](CO)NC(=O)[C@H](CCC(N)=O)NC(C)=O)[C@@H](C)O)C(=O)N[C@@H](CCC(N)=O)C(=O)N[C@@H](CC(N)=O)C(N)=O)",α-helix secondary structure (CD spectrum),"10% HFIP solution (HFIP:water=1:9, v/v), peptide 6 μM (FIG. 4)",stabilized
same,α-helix secondary structure (CD spectrum),"distilled water, peptide 6 μM (FIG. 3)",not stabilized but unfolded
